# From PMC5750218, “Protein-inspired antibiotics active against vancomycin- and daptomycin-resistant bacteria” (Nature Communications, 2018)
# Where two headings read alike, the source gives them in different places.
# Key:
# [1] = system: Multi-drug-resistant S. pneumoniae ATCC 700677; experiment: microbe, parasite or virus in culture; conditions: for MIC MDR S.P.: ATCC 700677
# Outline: (§1)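 Growth inhibition measured by broth microdilution (MHB, 37 °C, 24 h incubation). MIC defined visually as the lowest inhibitory concentration.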
# [2] = system: Vancomycin-intermediate S. aureus NRS1; experiment: microbe, parasite or virus in culture; conditions: for MIC VISA: Vancomycin-intermediate NRS1
# Outline: as §1
# [3] = system: Vancomycin-resistant (VanA) Enterococcus faecium ATCC 51559; experiment: microbe, parasite or virus in culture; conditions: for MIC VRE: ATCC 51559
# Outline: as §1
# [4] = In vivo pharmacokinetics in mice; conditions: mouse; for level at 5 min / level at […] / level at 0.5 h / level at 1 h / level at 2 h / level at 4 h / level at 8 h / level at 24 h: male, CD1, plasma; for level at […]: 0.250 h; for level at 0.5 h: 0.500 h; for bioavailability / AUC(0-inf) / AUC(0-t) / C0 / clearance / half-life / MRT inf / MRT last / Vd / Cmax / Tmax: plasma; for bioavailability: subcutaneous, SC 10 mg kg-1 vs IV 2 mg kg-1; for MRT inf: read-out: MRT0-inf; for MRT last: read-out: MRT0-last; for Vd: read-out: Vdss
# Protocol: Performed by WuXi AppTec (Shanghai) Co., Ltd. Seven to 9-week-old male CD1 mice (SLAC Laboratory Animal Co. Ltd., Shanghai, China) weighing 25–35 g were acclimated for approximate 3 days before being used in the study. Animals are group housed during acclimation and in-life study in compliance with the National Research Council 'Guide for the Care and Use of Laboratory Animals.' The animal room environment is controlled (target conditions: temperature 18 to 26 °C, relative humidity 30–70%, 12 h artificial light and 12 h dark) with temperature and relative humidity monitored daily. Animals were deprived of food for approximately 16 h before formulation administration then allowed access to Certified Rodent Diet (Catalogue # M-01F, Shanghai SLAC Laboratory Animal Co. Ltd.) ad libitum 4 h post dosing. Water was autoclaved before being provided to the animals ad libitum. Formulations of compounds were prepared on the morning of the dosing day. The formulation for the IV group was filtered with filter of 0.22 μm before being dosed to animals. After dose formulation preparation, duplicate 50 μL aliquots were removed from each dose formulation for use in dose validation. For each compound studied, three mice were dosed intravenously (IV) administered to each animal via tail vein per facility SOPs using test article formulated in deionised water at 1 mg mL^−1 with a dose volume of 2 mg mL^−1, providing a dose of 2 mg mL^−1 (based on free base concentration). An additional three mice were dosed subcutaneously (SC) administered to each animal via subcutaneous bolus on each animals’ back per facility SOPs using test article formulated in deionised water at 2 mg mL^−1 with a dose volume of 5 mg mL^−1, providing a dose of 10 mg mL^−1. All animals were killed at the last study time point (100% CO2 was introduced into the animal box).
# Plasma samples were collected as the following target times after each dose administration: IV Sampling Time points (hours post dosing): 0, 0.083, 0.25, 0.5, 1, 2, 4, 8 and 24. SC Sampling Time points (hours post dosing): 0, 0.25, 0.5, 1, 2, 4, 8 and 24. Approximately 30 μL blood was obtained via submandibular or saphenous vein for the first several time points. For the last time point, samples were collected via cardiac puncture while the mouse was under anaesthesia. All blood samples were transferred into pre-chilled plastic microcentrifuge tubes containing 2 μL of ethylenediaminetetraacetic acid dipotassium salt (K2-EDTA) (0.5 M) as anticoagulant and placed on wet ice until centrifugation. Harvested blood samples were centrifuged within 30 min of collection at 7000 rpm (8546 × g) 4 °C for about 10 min. After centrifugation, plasma was transferred into another pre-labelled and pre-chilled polypropylene microcentrifuge tubes, then quick-frozen over dry ice and stored at −70 ± 10 °C until LC/MSMS analysis.
# LC-MS/MS methods for the quantitative determination of the test article in mouse plasma were developed with an internal standard. Benchtop stability of the compound in mouse plasma was determined at mid QC concentrations in triplicate at 0, 2 h at room temperature. The stability was determined using mean peak area ratio of T2/T0 sample. If the mean peak area ratio is within 80%~120%, the test article in the plasma is considered stable for 2 h at room temperature. […] A set of QC samples consists of three concentration levels (low, middle and high). The sample analysis was performed concurrently with a set of calibration standards and two sets of QC samples using the LC-MS/MS method.
# Plasma concentration vs. time data from individual animals was analysed by WinNonLin non-compartmental model (Phoenix WinNonlin 6.2.1, Pharsight, Mountain View, CA). Pharmacokinetic parameter C 0, T ½, CL, Vdss, C max, T max, AUC0-last, AUC0-inf, %F, MRT0-last, MRT0-inf and graphs of plasma concentration vs. time profile were derived.
# [5] = 37 °C, 20 µM
# [6] = system: S. aureus ATCC 43300 MRSA; experiment: microbe, parasite or virus in culture; format: cell-based, Staphylococcus aureus
# Protocol: The compounds, along with standard antibiotics were serially diluted twofold across the wells of 96-well non-binding surface (NBS) polystyrene plates (Corning 3641). […] Standards ranged from 64 to 0.03 µg mL^−1 and compounds from 8 to 0.003 µg mL^−1 with final assay volumes of 100 µL per well. Gram-positive bacteria were cultured in Mueller Hinton broth (MHB) (Bactolaboratories, Cat. no. 211443) at 37 °C overnight. A sample of each culture was then diluted 40-fold in fresh MHB and incubated at 37 °C for 2–3 h. The resultant mid-log phase cultures were added to the compound-containing 96-well plates to give a final cell density of 5 × 10^5 colony forming unit (CFU) mL^−1. All the plates were covered and incubated at 37 °C for 24 h. MICs were the lowest concentration showing no visible growth.
# [7] = 2 mg/kg IV, n=3, read-out: Plasma concentration, Mean IV
# [8] = 2 mg/kg IV, read-out: Plasma concentration, Mean IV
# [9] = 10 mg/kg SC, n=3, read-out: Plasma concentration, Mean SC
# [10] = 10 mg/kg SC, read-out: Plasma concentration, Mean SC
SMILES,MIC MDR S.P. [1],MIC VISA [2],"level at 5 min [4, 7]","level at […] [4, 8]","level at 0.5 h [4, 8]","level at 1 h [4, 8]","level at 2 h [4, 8]","level at 4 h [4, 8]","level at […] [4, 9]","level at 0.5 h [4, 10]","level at 1 h [4, 10]","level at 2 h [4, 10]","level at 4 h [4, 10]","level at 8 h [4, 10]",AUC0-inf/AUC0-last ([4]; IV 2 mg kg-1),AUC0-inf/AUC0-last ([4]; SC 10 mg kg-1),Tlast ([4]; SC 10 mg kg-1),bioavailability [4],AUC(0-inf) ([4]; IV 2 mg kg-1),AUC(0-t) ([4]; IV 2 mg kg-1),other results
"CN[C@H](CC(C)C)C(=O)N[C@H]1C(=O)N[C@@H](CC(N)=O)C(=O)N[C@H]2C(=O)N[C@H]3C(=O)N[C@H](C(=O)N[C@H](C(=O)O)c4cc(O)cc(O)c4-c4cc3ccc4O)[C@H](O[C@H]3C[C@](C)(N)[C@@H](O)[C@H](C)O3)c3ccc(c(Cl)c3)Oc3cc2cc(c3O[C@@H]2O[C@H](CO)[C@@H](O)[C@H](O)[C@H]2O[C@H]2C[C@](C)(NCc3ccc(-c4ccc(Cl)cc4)cc3)[C@@H](O)[C@H](C)O2)Oc2ccc(cc2Cl)[C@H]1O [Compound 5, Oritavancin, reference compound]",,,,,,,,,,,,,,,,,,,,,"MIC ([1]; Streptococcus pneumoniae, ATCC700677, read-out: MIC MDR S.P.): 0.06 µg/mL; MIC ([2]; Staphylococcus aureus, NRS1 / VISA, read-out: MIC VISA): 1 µg/mL; MIC ([3]; Enterococcus faecium, ATCC51559 / VRE, read-out: MIC VRE): 0.125 µg/mL"
"CCCCCCCCCCC(=O)N[C@@H](CCCCN)C(=O)N[C@@H](CCCCN)C(=O)N[C@@H](CCCCN)C(=O)N[C@@H](CCCCNC(=O)[C@H]1NC(=O)[C@H]2NC(=O)[C@H](NC(=O)[C@@H]3NC(=O)[C@H](CC(N)=O)NC(=O)[C@H](NC(=O)[C@@H](CC(C)C)NC)[C@H](O)c4ccc(c(Cl)c4)Oc4cc3cc(c4O[C@@H]3O[C@H](CO)[C@@H](O)[C@H](O)[C@H]3O[C@H]3C[C@](C)(N)[C@H](O)[C@H](C)O3)Oc3ccc(cc3Cl)[C@H]2O)c2ccc(O)c(c2)-c2c(O)cc(O)cc21)C(=O)O [Compound 18, nC10CO-KKK-K(Vancomycin)-OH]",0.06 µg/mL,0.5 µg/mL,5440 ng/mL,3570 ng/mL,2250 ng/mL,1500 ng/mL,447 ng/mL,69.6 ng/mL,2360 ng/mL,4450 ng/mL,6220 ng/mL,4520 ng/mL,1260 ng/mL,113 ng/mL,101%,101%,8 h,77%,4240 ng·h/mL,4210 ng·h/mL,"C0 ([4]; IV 2 mg kg-1): 6740 ng/mL; clearance ([4]; IV 2 mg kg-1): 8.11 mL/min/kg; half-life ([4]; IV 2 mg kg-1): 0.77 h; MRT inf ([4]; IV 2 mg kg-1): 0.9 h; MRT last ([4]; IV 2 mg kg-1): 0.9 h; Vd ([4]; IV 2 mg kg-1): 0.43 L/kg; AUC(0-inf) ([4]; SC 10 mg kg-1): 16300 ng·h/mL; AUC(0-t) ([4]; SC 10 mg kg-1): 16100 ng·h/mL; Cmax ([4]; SC 10 mg kg-1): 6290 ng/mL; Tmax ([4]; SC 10 mg kg-1): 0.83 h; half-life ([4]; SC 10 mg kg-1): 1.1 h; MRT inf ([4]; SC 10 mg kg-1): 2 h; MRT last ([4]; SC 10 mg kg-1): 1.9 h; % compound remaining after incubation in 50% human plasma, 0h [5]: 100%"
"CCCCCCCCCCC(=O)N[C@@H](CCCCN)C(=O)N[C@@H](CCCCN)C(=O)N[C@@H](CCCCNC(=O)[C@H]1NC(=O)[C@H]2NC(=O)[C@H](NC(=O)[C@@H]3NC(=O)[C@H](CC(N)=O)NC(=O)[C@H](NC(=O)[C@@H](CC(C)C)NC)[C@H](O)c4ccc(c(Cl)c4)Oc4cc3cc(c4O[C@@H]3O[C@H](CO)[C@@H](O)[C@H](O)[C@H]3O[C@H]3C[C@](C)(N)[C@H](O)[C@H](C)O3)Oc3ccc(cc3Cl)[C@H]2O)c2ccc(O)c(c2)-c2c(O)cc(O)cc21)C(=O)O [Compound 19, nC10CO-KK-K(Vancomycin)-OH]",0.06 µg/mL,0.5 µg/mL,9370 ng/mL,6970 ng/mL,6060 ng/mL,4860 ng/mL,2640 ng/mL,1450 ng/mL,2650 ng/mL,5130 ng/mL,8790 ng/mL,9160 ng/mL,7370 ng/mL,2380 ng/mL,100%,101%,24 h,71.8%,16900 ng·h/mL,16800 ng·h/mL,"MIC VRE [3]: 6 µg/mL; level at 8 h [4, 8]: 137 ng/mL; level at 24 h [4, 8]: 5.7 ng/mL; level at 24 h [4, 10]: 124 ng/mL; Tlast ([4]; IV 2 mg kg-1): 18.7 h; C0 ([4]; IV 2 mg kg-1): 10900 ng/mL; clearance ([4]; IV 2 mg kg-1): 1.98 mL/min/kg; half-life ([4]; IV 2 mg kg-1): 2.22 h; MRT inf ([4]; IV 2 mg kg-1): 2.26 h; MRT last ([4]; IV 2 mg kg-1): 2.2 h; Vd ([4]; IV 2 mg kg-1): 0.267 L/kg; AUC(0-inf) ([4]; SC 10 mg kg-1): 60500 ng·h/mL; AUC(0-t) ([4]; SC 10 mg kg-1): 59900 ng·h/mL; Cmax ([4]; SC 10 mg kg-1): 9970 ng/mL; Tmax ([4]; SC 10 mg kg-1): 1.67 h; half-life ([4]; SC 10 mg kg-1): 3.49 h; MRT inf ([4]; SC 10 mg kg-1): 5.59 h; MRT last ([4]; SC 10 mg kg-1): 5.32 h"
"CCCCCCCCCCC(=O)N[C@@H](CCCCN)C(=O)N[C@@H](CCCCN)C(=O)N[C@@H](CCCCNC(=O)[C@H]1NC(=O)[C@H]2NC(=O)[C@H](NC(=O)[C@@H]3NC(=O)[C@H](CC(N)=O)NC(=O)[C@H](NC(=O)[C@@H](CC(C)C)NC)[C@H](O)c4ccc(c(Cl)c4)Oc4cc3cc(c4O[C@@H]3O[C@H](CO)[C@@H](O)[C@H](O)[C@H]3O[C@H]3C[C@](C)(N)[C@H](O)[C@H](C)O3)Oc3ccc(cc3Cl)[C@H]2O)c2ccc(O)c(c2)-c2c(O)cc(O)cc21)C(N)=O [Compound 21, nC10CO-KK-K(Vancomycin)-NH2]",0.015 µg/mL,0.06 µg/mL,10000 ng/mL,5680 ng/mL,4330 ng/mL,2470 ng/mL,1940 ng/mL,758 ng/mL,944 ng/mL,1440 ng/mL,2950 ng/mL,3140 ng/mL,2320 ng/mL,1370 ng/mL,101%,101%,24 h,43%,10900 ng·h/mL,10800 ng·h/mL,"MIC VRE [3]: 2 µg/mL; MIC S. aureus ATCC 43300 MRSA ([6]; 1% Survanta): 0.007 µg/mL; MIC S. aureus ATCC 43300 MRSA ([6]; 5% Survanta): 0.03 µg/mL; MIC S. aureus ATCC 43300 MRSA ([6]; no added Survanta): 0.015 µg/mL; level at 8 h [4, 8]: 49.4 ng/mL; level at 24 h [4, 10]: 45 ng/mL; Tlast ([4]; IV 2 mg kg-1): 8 h; C0 ([4]; IV 2 mg kg-1): 14200 ng/mL; clearance ([4]; IV 2 mg kg-1): 3.13 mL/min/kg; half-life ([4]; IV 2 mg kg-1): 1.12 h; MRT inf ([4]; IV 2 mg kg-1): 1.7 h; MRT last ([4]; IV 2 mg kg-1): 1.6 h; Vd ([4]; IV 2 mg kg-1): 0.31 L/kg; AUC(0-inf) ([4]; SC 10 mg kg-1): 23400 ng·h/mL; AUC(0-t) ([4]; SC 10 mg kg-1): 23100 ng·h/mL; Cmax ([4]; SC 10 mg kg-1): 3560 ng/mL; Tmax ([4]; SC 10 mg kg-1): 2.33 h; half-life ([4]; SC 10 mg kg-1): 3.4 h; MRT inf ([4]; SC 10 mg kg-1): 6.3 h; MRT last ([4]; SC 10 mg kg-1): 6 h"
